Assay results reported in patent publication US20060204492A1 (published 2006).
Where a chain is given by its changes, count along the chain named.

B1: LM609 grafted antibody variant F32 (Fab, V domains shown)
VH: QVQLVESGGGVVQPGRSLRLSCAASGFTFSSYDMSWVRQAPGKGLEWVAKVSSGGGSTYYLDTVQGRFTISRDNSKNTLYLQMNSLRAEDTAVYYCARHNYGSFAYWGQGTTVTVSS
VL: EIVLTQSPATLSLSPGERATLSCQASQSISNFLHWYQQRPGQAPRLLIRYRSQSISGIPARFSGSGSGTDFTLTISSLEPEDFAVYYCQQSGSWPHTFGGGTKVEIK
notes: Fab
B2: LM609 grafted antibody variant H97 (Fab, V domains shown)
VH: B1 VH with Y101H
VL: B1 VL with F32H
notes: Fab
B3: Vitaxin (antibody, human IgG1, V domains shown)
VH: B1 VH
VL: B1 VL with F32H, R49K
notes: Human IgG1 constant region and human kappa constant region; also called huLM609M13 1135-4; grafted LM609
B4: LM609 grafted antibody variant Y100 (Fab, V domains shown)
VH: B1 VH with F104Y
VL: B1 VL with F32H
notes: Fab
B5: LM609 grafted antibody variant Y101 (Fab, V domains shown)
VH: B1 VH with A105Y
VL: B1 VL with F32H
notes: Fab
B6: LM609 grafted antibody variant G102 (Fab, V domains shown)
VH: B1 VH with Y106G
VL: B1 VL with F32H
notes: Fab; also called clone G102
B7: LM609 grafted antibody variant S102 (Fab, V domains shown)
VH: B1 VH with Y106S
VL: B1 VL with F32H
notes: Fab; also called clone S102

What was measured:
[1] = target: integrin αvβ3 on cells (M21 human melanoma cells; human umbilical vein endothelial cells) (human) (UniProt P06756); assay: cell-based or functional assay
Chain of integrin αvβ3 on cells (M21 human melanoma cells; human umbilical vein endothelial cells) (human) (P06756 31-1048, chain 1 of 2): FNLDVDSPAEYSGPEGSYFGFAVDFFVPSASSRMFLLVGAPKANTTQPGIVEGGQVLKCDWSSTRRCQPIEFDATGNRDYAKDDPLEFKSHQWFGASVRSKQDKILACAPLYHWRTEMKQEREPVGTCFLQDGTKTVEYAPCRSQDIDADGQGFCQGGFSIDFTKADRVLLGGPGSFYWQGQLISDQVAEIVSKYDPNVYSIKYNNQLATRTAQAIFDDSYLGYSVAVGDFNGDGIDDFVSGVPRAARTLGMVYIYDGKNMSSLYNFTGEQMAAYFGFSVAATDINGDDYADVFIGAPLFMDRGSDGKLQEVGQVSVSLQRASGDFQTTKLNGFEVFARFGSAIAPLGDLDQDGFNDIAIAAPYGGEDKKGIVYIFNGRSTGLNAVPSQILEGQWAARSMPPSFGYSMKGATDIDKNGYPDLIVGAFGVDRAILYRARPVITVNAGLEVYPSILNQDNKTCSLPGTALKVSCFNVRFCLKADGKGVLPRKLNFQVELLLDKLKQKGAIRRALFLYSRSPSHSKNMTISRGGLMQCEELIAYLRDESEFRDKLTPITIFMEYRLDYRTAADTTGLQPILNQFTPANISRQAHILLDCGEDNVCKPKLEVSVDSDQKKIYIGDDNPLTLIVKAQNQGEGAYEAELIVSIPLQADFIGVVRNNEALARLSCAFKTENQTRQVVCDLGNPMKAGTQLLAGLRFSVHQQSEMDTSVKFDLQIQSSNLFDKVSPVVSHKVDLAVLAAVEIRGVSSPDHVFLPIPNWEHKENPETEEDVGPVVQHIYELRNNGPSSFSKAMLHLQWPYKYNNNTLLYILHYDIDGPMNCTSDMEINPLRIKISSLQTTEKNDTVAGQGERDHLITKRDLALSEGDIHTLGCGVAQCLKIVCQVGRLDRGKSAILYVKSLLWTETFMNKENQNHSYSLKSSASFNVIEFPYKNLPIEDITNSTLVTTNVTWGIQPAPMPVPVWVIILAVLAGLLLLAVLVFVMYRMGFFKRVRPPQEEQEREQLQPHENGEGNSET
Chain of integrin αvβ3 on cells (M21 human melanoma cells; human umbilical vein endothelial cells) (human) (P05106 27-788, chain 2 of 2, further chain): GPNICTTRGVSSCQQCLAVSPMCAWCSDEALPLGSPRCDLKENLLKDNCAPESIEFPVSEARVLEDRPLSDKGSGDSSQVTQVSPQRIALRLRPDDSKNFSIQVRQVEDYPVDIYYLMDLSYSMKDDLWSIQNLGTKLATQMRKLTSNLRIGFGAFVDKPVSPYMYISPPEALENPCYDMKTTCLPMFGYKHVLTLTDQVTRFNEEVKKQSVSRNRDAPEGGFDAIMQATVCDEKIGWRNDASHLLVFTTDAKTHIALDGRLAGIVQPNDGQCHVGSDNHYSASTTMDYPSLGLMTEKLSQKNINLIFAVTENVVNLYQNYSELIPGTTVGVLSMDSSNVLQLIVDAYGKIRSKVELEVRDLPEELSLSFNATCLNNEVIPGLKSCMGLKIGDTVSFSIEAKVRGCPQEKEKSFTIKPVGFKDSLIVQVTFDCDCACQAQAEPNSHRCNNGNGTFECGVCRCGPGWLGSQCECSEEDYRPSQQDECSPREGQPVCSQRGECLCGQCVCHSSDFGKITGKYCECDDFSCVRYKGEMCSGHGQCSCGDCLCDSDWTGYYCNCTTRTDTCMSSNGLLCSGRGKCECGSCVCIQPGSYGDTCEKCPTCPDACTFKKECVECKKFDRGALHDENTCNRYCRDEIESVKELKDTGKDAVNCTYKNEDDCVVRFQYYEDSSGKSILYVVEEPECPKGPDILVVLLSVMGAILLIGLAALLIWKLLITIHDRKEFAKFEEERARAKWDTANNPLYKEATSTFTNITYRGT

[2] = target: T1, integrin αvβ3, purified from human placenta (human, UniProt P06756 31-1048; P05106 27-788); assay: SPR (BIAcore), purified Fab over immobilized αvβ3
T1 construct: mature; Native heterodimer, immobilized on ELISA plates or on the BIAcore chip; biotinylated in capture lift and capture ELISA screens; also called αvβ3 receptor; vitronectin receptor
T1 sequence (P06756 31-1048, form in doubt, chain 1 of 2): as the sequence (P06756 31-1048, chain 1 of 2) above
T1 sequence (P05106 27-788, form in doubt, chain 2 of 2): as the sequence (P05106 27-788, chain 2 of 2, further chain) above

[3] = target: T1, integrin αvβ3, purified from human …; assay: ELISA titration of Fab on immobilized αvβ3
Protocol: (§1) Just prior to use, the plates were washed two times and were then incubated 1 h at 25° C. with various dilutions of Fab. […] All dilutions and washes were in 50 mM Tris-HCl, pH 7.4, 100 mM NaCl, 2 mM CaCl₂, and 1 mM MgCl₂.

[4] = target: T1, integrin αvβ3, purified from human …; assay: SPR (BIAcore), purified Fab over immobilized αvβ3; remark: listed apart in the source
Protocol: The affinities of select variants were further characterized by utilizing surface plasmon resonance (BIAcore) to measure the association and dissociation rates of purified Fab with immobilized αᵥβ₃. […] To obtain association rate constants (kₒₙ), the binding rate at five different Fab concentrations, ranging from 5-40 μg/ml in 50 mM Tris-HCl, pH 7.4, 100 mM NaCl, 2 mM CaCl₂, and 1 mM MgCl₂, was determined at a flow rate of 10 μl/min. Dissociation rate constants (koff) were the average of five measurements obtained by analyzing the dissociation phase at an increased flow rate (40 μl/min). Sensorgrams were analyzed with the BIAevaluation 2.1 program (Pharmacia). Residual Fab was removed after each measurement with 10 mM HCl, 2 mM CaCl₂ and 1 mM MgCl₂.

integrin αvβ5 = target: T2, integrin αvβ5 (human, UniProt P06756 31-1048; P18084 24-799); assay: ELISA on coated integrin, goat anti-human IgG-alkaline phosphatase
T2 construct: mature
T2 sequence (P06756 31-1048, chain 1 of 2): as the sequence (P06756 31-1048, chain 1 of 2) above
T2 sequence (P18084 24-799, chain 2 of 2): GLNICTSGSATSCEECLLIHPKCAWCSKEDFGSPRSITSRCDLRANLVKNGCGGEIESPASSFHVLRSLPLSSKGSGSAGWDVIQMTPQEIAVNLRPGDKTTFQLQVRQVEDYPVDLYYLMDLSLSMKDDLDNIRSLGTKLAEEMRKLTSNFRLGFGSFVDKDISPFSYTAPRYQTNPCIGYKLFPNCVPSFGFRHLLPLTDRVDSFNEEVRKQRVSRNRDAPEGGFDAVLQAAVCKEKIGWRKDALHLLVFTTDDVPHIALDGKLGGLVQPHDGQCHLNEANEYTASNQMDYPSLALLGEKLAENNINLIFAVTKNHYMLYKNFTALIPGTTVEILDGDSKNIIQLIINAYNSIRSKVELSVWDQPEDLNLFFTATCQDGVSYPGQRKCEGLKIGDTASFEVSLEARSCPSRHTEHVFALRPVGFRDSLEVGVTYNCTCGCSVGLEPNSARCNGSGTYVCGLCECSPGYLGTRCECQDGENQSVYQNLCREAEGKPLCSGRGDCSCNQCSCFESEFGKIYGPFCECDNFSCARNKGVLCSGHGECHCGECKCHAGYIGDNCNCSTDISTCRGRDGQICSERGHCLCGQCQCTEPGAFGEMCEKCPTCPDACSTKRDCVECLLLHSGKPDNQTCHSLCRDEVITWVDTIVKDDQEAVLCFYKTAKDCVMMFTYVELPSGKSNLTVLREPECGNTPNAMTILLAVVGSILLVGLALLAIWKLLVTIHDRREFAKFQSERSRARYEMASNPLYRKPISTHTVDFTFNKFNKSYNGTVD
Protocol: Antibody binding activity was assessed by ELISA using a goat anti-human IgG-alkaline phosphatase conjugate.

[5] = target: T1, integrin αvβ3, purified from human …; assay: ELISA titration of bacterial lysate Fab on immobilized αvβ3, inflection points
Protocol: as §1

Molecule	inhibition of M21 cell adhesion to fibrinogen: inhibitory concentration for 50% maximal adhesion [1]	inhibition of vitronectin-induced migration of human umbilical vein endothelial cells (transwell), 5 µg/ml antibody [1]	fold slower dissociation than LM609 grafted antibody [2]	fold enhanced binding over parent LM609 grafted antibody [3]	Kd [4]	koff [4]	kon [4]	binding result (integrin αvβ5)	fold improved affinity over LM609 grafted antibody [5]	fold increase in affinity over parent LM609 grafted antibody [2]	fold enhanced affinity over LM609 grafted antibody [2]	fold higher affinity than LM609 grafted antibody [2]
monoclonal antibody LM609	50 ng/mL	60%										
B1			11.8 fold	> 3 fold	2.5 nM	0.00042 s⁻¹	167000 M⁻¹ s⁻¹					
B2			1.6 fold	> 3 fold	13.8 nM	0.00303 s⁻¹	220000 M⁻¹ s⁻¹					
B3								no binding (tested: over 1.0 mg/ml)				
B4				> 3 fold	14.3 nM	0.00251 s⁻¹	175000 M⁻¹ s⁻¹		> 3 fold			
B5				> 3 fold	2.2 nM	0.00048 s⁻¹	218000 M⁻¹ s⁻¹		> 3 fold	12.5 fold		
B6				> 3 fold	12.5 nM	0.00201 s⁻¹	161000 M⁻¹ s⁻¹				2.2 fold	
B7				> 3 fold	6 nM	0.00144 s⁻¹	242000 M⁻¹ s⁻¹		> 3 fold			4.6 fold
